Non-standard residues stand in square brackets, D forms with d. Nle = CCCC[C@H](N)C(=O)O; Aib = CC(C)(N)C(=O)O
T1: RXFP1 receptor (UniProt Q9HBX9 1-757, limits assumed)
T1 sequence (looked up): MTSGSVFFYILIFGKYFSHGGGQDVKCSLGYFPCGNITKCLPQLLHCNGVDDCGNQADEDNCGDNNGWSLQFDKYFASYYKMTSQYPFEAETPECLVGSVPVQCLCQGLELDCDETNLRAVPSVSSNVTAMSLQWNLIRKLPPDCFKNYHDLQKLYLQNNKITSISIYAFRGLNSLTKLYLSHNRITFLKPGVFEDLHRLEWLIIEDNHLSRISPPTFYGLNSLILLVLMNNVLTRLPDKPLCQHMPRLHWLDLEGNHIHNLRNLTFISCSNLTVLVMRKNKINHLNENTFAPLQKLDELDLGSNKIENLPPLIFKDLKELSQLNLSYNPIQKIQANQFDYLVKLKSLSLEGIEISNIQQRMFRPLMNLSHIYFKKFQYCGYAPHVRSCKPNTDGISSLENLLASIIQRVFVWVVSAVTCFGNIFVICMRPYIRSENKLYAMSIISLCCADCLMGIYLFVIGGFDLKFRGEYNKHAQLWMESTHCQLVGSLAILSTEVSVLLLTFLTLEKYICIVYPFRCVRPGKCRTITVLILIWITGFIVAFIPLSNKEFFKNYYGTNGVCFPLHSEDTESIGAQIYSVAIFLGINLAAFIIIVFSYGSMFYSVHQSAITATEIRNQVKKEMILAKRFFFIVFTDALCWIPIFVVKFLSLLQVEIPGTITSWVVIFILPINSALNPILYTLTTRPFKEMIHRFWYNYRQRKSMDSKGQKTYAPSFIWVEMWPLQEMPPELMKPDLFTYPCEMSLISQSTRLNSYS

B1: SEQ ID NO: 53 (peptide)
peptide: Ac-LEGREKVRAQI[Aib][Aib]EG[Nle]STYS[Aib]RKK-NH2
SMILES: CCCC[C@H](NC(=O)CNC(=O)[C@H](CCC(=O)O)NC(=O)C(C)(C)NC(=O)C(C)(C)NC(=O)[C@@H](NC(=O)[C@H](CCC(N)=O)NC(=O)[C@H](C)NC(=O)[C@H](CCCNC(=N)N)NC(=O)[C@@H](NC(=O)[C@H](CCCCN)NC(=O)[C@H](CCC(=O)O)NC(=O)[C@H](CCCNC(=N)N)NC(=O)CNC(=O)[C@H](CCC(=O)O)NC(=O)[C@H](CC(C)C)NC(C)=O)C(C)C)[C@@H](C)CC)C(=O)N[C@@H](CO)C(=O)N[C@H](C(=O)N[C@@H](Cc1ccc(O)cc1)C(=O)N[C@@H](CO)C(=O)NC(C)(C)C(=O)N[C@@H](CCCNC(=N)N)C(=O)N[C@@H](CCCCN)C(=O)N[C@@H](CCCCN)C(N)=O)[C@@H](C)O
B2: SEQ ID NO: 55 (peptide)
peptide: Ac-LEGREKVRAQI[Aib][Aib]EG[Nle]SRWS[Aib]RRR-NH2
SMILES: CCCC[C@H](NC(=O)CNC(=O)[C@H](CCC(=O)O)NC(=O)C(C)(C)NC(=O)C(C)(C)NC(=O)[C@@H](NC(=O)[C@H](CCC(N)=O)NC(=O)[C@H](C)NC(=O)[C@H](CCCNC(=N)N)NC(=O)[C@@H](NC(=O)[C@H](CCCCN)NC(=O)[C@H](CCC(=O)O)NC(=O)[C@H](CCCNC(=N)N)NC(=O)CNC(=O)[C@H](CCC(=O)O)NC(=O)[C@H](CC(C)C)NC(C)=O)C(C)C)[C@@H](C)CC)C(=O)N[C@@H](CO)C(=O)N[C@@H](CCCNC(=N)N)C(=O)N[C@@H](Cc1c[nH]c2ccccc12)C(=O)N[C@@H](CO)C(=O)NC(C)(C)C(=O)N[C@@H](CCCNC(=N)N)C(=O)N[C@@H](CCCNC(=N)N)C(=O)N[C@@H](CCCNC(=N)N)C(N)=O
B3: SEQ ID NO: 52 (peptide)
peptide: Ac-LEGREKVRAQI[Aib][Aib]EG[Nle]SQWS[Aib]RRR-NH2
SMILES: CCCC[C@H](NC(=O)CNC(=O)[C@H](CCC(=O)O)NC(=O)C(C)(C)NC(=O)C(C)(C)NC(=O)[C@@H](NC(=O)[C@H](CCC(N)=O)NC(=O)[C@H](C)NC(=O)[C@H](CCCNC(=N)N)NC(=O)[C@@H](NC(=O)[C@H](CCCCN)NC(=O)[C@H](CCC(=O)O)NC(=O)[C@H](CCCNC(=N)N)NC(=O)CNC(=O)[C@H](CCC(=O)O)NC(=O)[C@H](CC(C)C)NC(C)=O)C(C)C)[C@@H](C)CC)C(=O)N[C@@H](CO)C(=O)N[C@@H](CCC(N)=O)C(=O)N[C@@H](Cc1c[nH]c2ccccc12)C(=O)N[C@@H](CO)C(=O)NC(C)(C)C(=O)N[C@@H](CCCNC(=N)N)C(=O)N[C@@H](CCCNC(=N)N)C(=O)N[C@@H](CCCNC(=N)N)C(N)=O
B4: SEQ ID NO: 54 (peptide)
peptide: Ac-LEGREKVRAQI[Aib][Aib]EGQSTWS[Aib]RKK-NH2
SMILES: CC[C@H](C)[C@H](NC(=O)[C@H](CCC(N)=O)NC(=O)[C@H](C)NC(=O)[C@H](CCCNC(=N)N)NC(=O)[C@@H](NC(=O)[C@H](CCCCN)NC(=O)[C@H](CCC(=O)O)NC(=O)[C@H](CCCNC(=N)N)NC(=O)CNC(=O)[C@H](CCC(=O)O)NC(=O)[C@H](CC(C)C)NC(C)=O)C(C)C)C(=O)NC(C)(C)C(=O)NC(C)(C)C(=O)N[C@@H](CCC(=O)O)C(=O)NCC(=O)N[C@@H](CCC(N)=O)C(=O)N[C@@H](CO)C(=O)N[C@H](C(=O)N[C@@H](Cc1c[nH]c2ccccc12)C(=O)N[C@@H](CO)C(=O)NC(C)(C)C(=O)N[C@@H](CCCNC(=N)N)C(=O)N[C@@H](CCCCN)C(=O)N[C@@H](CCCCN)C(N)=O)[C@@H](C)O
B5: SEQ ID NO: 5 (peptide)
peptide: Ac-LEGREKVRAK(Ac)I[Aib][Aib]EG[Nle]STWS[Aib]RKK(Ac)-NH2
SMILES: CCCC[C@H](NC(=O)CNC(=O)[C@H](CCC(=O)O)NC(=O)C(C)(C)NC(=O)C(C)(C)NC(=O)[C@@H](NC(=O)[C@H](CCCCNC(C)=O)NC(=O)[C@H](C)NC(=O)[C@H](CCCNC(=N)N)NC(=O)[C@@H](NC(=O)[C@H](CCCCN)NC(=O)[C@H](CCC(=O)O)NC(=O)[C@H](CCCNC(=N)N)NC(=O)CNC(=O)[C@H](CCC(=O)O)NC(=O)[C@H](CC(C)C)NC(C)=O)C(C)C)[C@@H](C)CC)C(=O)N[C@@H](CO)C(=O)N[C@H](C(=O)N[C@@H](Cc1c[nH]c2ccccc12)C(=O)N[C@@H](CO)C(=O)NC(C)(C)C(=O)N[C@@H](CCCNC(=N)N)C(=O)N[C@@H](CCCCN)C(=O)N[C@@H](CCCCNC(C)=O)C(N)=O)[C@@H](C)O
B6: SEQ ID NO: 50 (peptide)
peptide: Ac-LEGREKVRAQI[Aib][Aib]EG[Nle]STWS[Aib]RRR-NH2
SMILES: CCCC[C@H](NC(=O)CNC(=O)[C@H](CCC(=O)O)NC(=O)C(C)(C)NC(=O)C(C)(C)NC(=O)[C@@H](NC(=O)[C@H](CCC(N)=O)NC(=O)[C@H](C)NC(=O)[C@H](CCCNC(=N)N)NC(=O)[C@@H](NC(=O)[C@H](CCCCN)NC(=O)[C@H](CCC(=O)O)NC(=O)[C@H](CCCNC(=N)N)NC(=O)CNC(=O)[C@H](CCC(=O)O)NC(=O)[C@H](CC(C)C)NC(C)=O)C(C)C)[C@@H](C)CC)C(=O)N[C@@H](CO)C(=O)N[C@H](C(=O)N[C@@H](Cc1c[nH]c2ccccc12)C(=O)N[C@@H](CO)C(=O)NC(C)(C)C(=O)N[C@@H](CCCNC(=N)N)C(=O)N[C@@H](CCCNC(=N)N)C(=O)N[C@@H](CCCNC(=N)N)C(N)=O)[C@@H](C)O
B7: SEQ ID NO: 1 (peptide)
peptide: Ac-LEGREKVRAQI[Aib]IEGMSKWSKRKK-NH2
SMILES: CC[C@H](C)[C@H](NC(=O)[C@H](CCC(N)=O)NC(=O)[C@H](C)NC(=O)[C@H](CCCNC(=N)N)NC(=O)[C@@H](NC(=O)[C@H](CCCCN)NC(=O)[C@H](CCC(=O)O)NC(=O)[C@H](CCCNC(=N)N)NC(=O)CNC(=O)[C@H](CCC(=O)O)NC(=O)[C@H](CC(C)C)NC(C)=O)C(C)C)C(=O)NC(C)(C)C(=O)N[C@H](C(=O)N[C@@H](CCC(=O)O)C(=O)NCC(=O)N[C@@H](CCSC)C(=O)N[C@@H](CO)C(=O)N[C@@H](CCCCN)C(=O)N[C@@H](Cc1c[nH]c2ccccc12)C(=O)N[C@@H](CO)C(=O)N[C@@H](CCCCN)C(=O)N[C@@H](CCCNC(=N)N)C(=O)N[C@@H](CCCCN)C(=O)N[C@@H](CCCCN)C(N)=O)[C@@H](C)CC
B8: SEQ ID NO: 51 (peptide)
peptide: Ac-LEGREKVRAQI[Aib][Aib]EG[Nle]STFS[Aib]RKK-NH2
SMILES: CCCC[C@H](NC(=O)CNC(=O)[C@H](CCC(=O)O)NC(=O)C(C)(C)NC(=O)C(C)(C)NC(=O)[C@@H](NC(=O)[C@H](CCC(N)=O)NC(=O)[C@H](C)NC(=O)[C@H](CCCNC(=N)N)NC(=O)[C@@H](NC(=O)[C@H](CCCCN)NC(=O)[C@H](CCC(=O)O)NC(=O)[C@H](CCCNC(=N)N)NC(=O)CNC(=O)[C@H](CCC(=O)O)NC(=O)[C@H](CC(C)C)NC(C)=O)C(C)C)[C@@H](C)CC)C(=O)N[C@@H](CO)C(=O)N[C@H](C(=O)N[C@@H](Cc1ccccc1)C(=O)N[C@@H](CO)C(=O)NC(C)(C)C(=O)N[C@@H](CCCNC(=N)N)C(=O)N[C@@H](CCCCN)C(=O)N[C@@H](CCCCN)C(N)=O)[C@@H](C)O
B9: SEQ ID NO: 6 (peptide)
peptide: H-LEGREKVRAQI[Aib]IEGMSKWSKRKK-NH2
SMILES: CC[C@H](C)[C@H](NC(=O)[C@H](CCC(N)=O)NC(=O)[C@H](C)NC(=O)[C@H](CCCNC(=N)N)NC(=O)[C@@H](NC(=O)[C@H](CCCCN)NC(=O)[C@H](CCC(=O)O)NC(=O)[C@H](CCCNC(=N)N)NC(=O)CNC(=O)[C@H](CCC(=O)O)NC(=O)[C@@H](N)CC(C)C)C(C)C)C(=O)NC(C)(C)C(=O)N[C@H](C(=O)N[C@@H](CCC(=O)O)C(=O)NCC(=O)N[C@@H](CCSC)C(=O)N[C@@H](CO)C(=O)N[C@@H](CCCCN)C(=O)N[C@@H](Cc1c[nH]c2ccccc12)C(=O)N[C@@H](CO)C(=O)N[C@@H](CCCCN)C(=O)N[C@@H](CCCNC(=N)N)C(=O)N[C@@H](CCCCN)C(=O)N[C@@H](CCCCN)C(N)=O)[C@@H](C)CC

What follows are binders tested against T1, RXFP1 receptor (assay: cell-based or functional assay).
B1 was tested, and the “cAMP assay in OVCAR 5 cells EC50” value was 76.2 nM and the “cAMP assay in OVCAR 5 cells Emax” value was 75%. In the case of B2, the “cAMP assay in OVCAR 5 cells EC50” value is reported as 4.9 nM and the “cAMP assay in OVCAR 5 cells Emax” value is reported as 88%. B3 was tested, and the “cAMP assay in OVCAR 5 cells EC50” value was 9.15 nM and the “cAMP assay in OVCAR 5 cells Emax” value was 94%. For B4, the “cAMP assay in OVCAR 5 cells EC50” value was 22 nM. B5 was tested, and the “cAMP assay in OVCAR 5 cells EC50” value was 7.4 nM and the “cAMP assay in OVCAR 5 cells Emax” value was 98%. In the case of B6, the “cAMP assay in OVCAR 5 cells EC50” value is reported as 4.42 nM and the “cAMP assay in OVCAR 5 cells Emax” value is reported as 90%. B7 was tested, and the “cAMP assay in OVCAR 5 cells EC50” value was 42.9 nM and the “cAMP assay in OVCAR 5 cells Emax” value was 91%. With B8 the “cAMP assay in OVCAR 5 cells EC50” value was 18.6 nM and the “cAMP assay in OVCAR 5 cells Emax” value was 98%. With B9 the “cAMP assay in OVCAR 5 cells EC50” value was 46.3 nM and the “cAMP assay in OVCAR 5 cells Emax” value was 97%.
